EP1354598A2 (ZymoGenetics, Inc., dated 2003)

B1: TACI-Ig soluble receptor (TACI-Fc4 fusion protein) (Fc fusion, part only; not given: Fc4 part, part only)
chain, part: MSGLGRSRRGGRSRVDQEERFPQGLWTGVAMRSCPEEQYWDPLLGTCMSCKTICNHQSQRTCAAFCRSLSCRKEQGKFYDHLLRDCISCASICGQHPKQCAYFCENKLRSPVNLPPELRRQRSGEVENNSDNSGRYQGLEHRGSEASPALPGLKLSADQVALVYS
B2: BCMA (SEQ ID NO:8) (receptor)
chain: MLQMAGQCSQNEYFDSLLHACIPCQLRCSSNTPPLTCQRYCNASVTNSVKGTNAILWTCLGLSLIISLAVFVLMFLLRKISSEPLKDEFKNTGSGLLGMANIDLEKSRTGDEIILPRGLEYTVEECTCEDCIKSKPKVDSDHCFPLPAMEEGATILVTTKTNDYCKSLPAALSATEIEKSISAR
notes: also called BCMA-BHK

Assays:
soluble ztnf4 (human) = soluble ztnf4 (human) (UniProt Q9Y275); assay: cell-based or functional assay
soluble ztnf4 (human), sequence (Q9Y275 134-285 limits assumed): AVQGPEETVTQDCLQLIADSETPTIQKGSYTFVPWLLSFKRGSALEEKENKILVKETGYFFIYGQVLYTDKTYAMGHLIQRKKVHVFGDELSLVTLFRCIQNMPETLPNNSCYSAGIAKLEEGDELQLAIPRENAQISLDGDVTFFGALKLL

soluble I^125-ztnf4 = molecular target: T1, soluble I^125-ztnf4 (human, UniProt Q9Y275 134-285, limits assumed, 125I-labelled); assay: Scatchard analysis of soluble 125I-ztnf4 on stable BHK transfectants expressing BCMA
T1 construct: also called ztnf4 sol; neutrokine alpha
T1 sequence (Q9Y275 134-285 limits assumed): as above

Row | Binder | inhibition of soluble ztnf4-stimulated human B cell proliferation (3H thymidine, with IL-4) (fold molar excess) (soluble ztnf4 (human)) | Kd (soluble I^125-ztnf4) [nM]
1 | B1 | 10 | –
2 | B2 | – | 1.25
